{"source": "paper PMC3542269", "biological_target": "clathrin (human (endogenous in PC-3)) (UniProt Q00610)", "sequence (Q00610 whole entry)": "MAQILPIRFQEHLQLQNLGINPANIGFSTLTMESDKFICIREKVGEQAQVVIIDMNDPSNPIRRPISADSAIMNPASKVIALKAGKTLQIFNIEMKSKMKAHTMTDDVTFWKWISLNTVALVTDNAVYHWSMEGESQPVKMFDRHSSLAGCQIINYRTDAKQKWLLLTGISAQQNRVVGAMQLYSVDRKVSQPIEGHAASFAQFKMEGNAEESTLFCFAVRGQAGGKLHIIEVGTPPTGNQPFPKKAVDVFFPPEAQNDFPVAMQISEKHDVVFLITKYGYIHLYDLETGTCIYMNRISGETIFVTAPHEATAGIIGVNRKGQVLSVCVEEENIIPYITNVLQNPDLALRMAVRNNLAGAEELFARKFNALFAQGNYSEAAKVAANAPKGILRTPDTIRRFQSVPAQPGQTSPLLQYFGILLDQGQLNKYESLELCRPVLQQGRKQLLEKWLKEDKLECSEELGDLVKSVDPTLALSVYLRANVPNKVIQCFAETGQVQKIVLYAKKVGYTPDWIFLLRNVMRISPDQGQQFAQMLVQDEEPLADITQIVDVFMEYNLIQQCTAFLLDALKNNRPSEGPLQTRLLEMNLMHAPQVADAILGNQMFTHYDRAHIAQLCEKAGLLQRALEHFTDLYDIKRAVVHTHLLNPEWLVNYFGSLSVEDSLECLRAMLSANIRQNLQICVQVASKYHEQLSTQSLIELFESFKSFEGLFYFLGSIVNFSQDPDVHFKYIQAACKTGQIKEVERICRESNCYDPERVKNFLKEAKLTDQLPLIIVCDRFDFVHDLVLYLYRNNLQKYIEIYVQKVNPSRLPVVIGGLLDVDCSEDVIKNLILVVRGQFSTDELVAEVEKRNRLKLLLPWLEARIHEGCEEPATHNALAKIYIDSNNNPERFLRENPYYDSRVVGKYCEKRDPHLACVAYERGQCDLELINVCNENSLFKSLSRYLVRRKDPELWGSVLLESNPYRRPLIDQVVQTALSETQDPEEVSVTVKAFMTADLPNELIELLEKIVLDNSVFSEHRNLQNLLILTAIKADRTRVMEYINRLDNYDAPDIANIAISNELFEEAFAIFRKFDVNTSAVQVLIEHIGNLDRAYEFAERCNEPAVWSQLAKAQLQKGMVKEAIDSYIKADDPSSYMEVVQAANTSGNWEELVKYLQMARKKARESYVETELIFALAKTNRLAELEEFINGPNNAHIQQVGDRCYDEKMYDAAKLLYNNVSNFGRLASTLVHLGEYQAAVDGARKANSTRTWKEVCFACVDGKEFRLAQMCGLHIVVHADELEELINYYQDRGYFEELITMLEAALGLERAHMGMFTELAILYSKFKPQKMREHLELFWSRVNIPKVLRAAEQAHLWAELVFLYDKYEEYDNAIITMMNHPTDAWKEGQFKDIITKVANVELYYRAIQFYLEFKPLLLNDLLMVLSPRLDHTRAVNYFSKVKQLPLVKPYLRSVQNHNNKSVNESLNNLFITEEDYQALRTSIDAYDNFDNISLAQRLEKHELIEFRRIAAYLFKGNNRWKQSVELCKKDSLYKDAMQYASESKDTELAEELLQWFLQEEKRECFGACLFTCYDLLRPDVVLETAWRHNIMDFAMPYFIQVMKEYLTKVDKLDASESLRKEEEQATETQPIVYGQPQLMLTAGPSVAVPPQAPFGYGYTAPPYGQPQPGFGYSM", "test": "co-IP; PC-3 lysate (50 mM HEPES pH 5.5, 1 mM EDTA, 150 mM NaCl, 1% Triton X-100); anti-clathrin (1 µg) or anti β-actin (5 µg) antibody overnight at 4°C, Protein A Sepharose; profilin 1 detected by Western blot; cells treated 24 h with 10 µM AMS-36 (cathepsin X inhibitor) or DMSO"}
{"substance": "profilin 1 (from UniProt P07737 1-140) (natural protein)", "values": [{"measurement": "more profilin 1 co-precipitated with clathrin from AMS-36-treated than from DMSO-treated cells", "result": 44, "unit": "%"}]}
